Measured values as given in patent US20100261660A1 (published 2010).

Target: T1, Soluble CD28-Ig (extracellular domain of human CD28 fused to the Fc portion of human IgG1) (human, UniProt P10747 19-152, biotin-conjugated (NHS-biotin) in the FACS binding assays)
T1 construct: extracellular domain; bought from R&D Systems; also called sCD28-Ig; CD28-Ig Fc; not shown: Fc portion of human IgG1
Test: competitive FACS on transfected cells, biotin-sCD28-Ig with FITC-sCTLA-4-Ig; grade 0-2 of CD28/CTLA-4 ratio vs WT hB7-1

| Binder | Binding Score |
| --- | --- |
| Round 2 CD28D10-4 (ligand) SGITPKSVTKRVKETVMLSCDYNTSTEELTSLRIYWQKDSKMVLAILPGKVQVWPEYKNRTITDMNDNPRIVILALRLSDKGTYTCVVQKNENGSFRREHLTSVTLSIRADFPVPSITDIGHPAPNVKRIRCSASGGFPEPRLAWMEDGEELNAVNTTVDQDLDTELYSVSSELDFNVTNNHSIVCLIKYGELSVSQIFPWSKPKQEPPIDQLPFWVIIPVSGALVLTAVVLYCLACRHVARWKRTRRNEETVGTERLSPIYLGSAQSSG | 0 |
| Round 2 CD28A8-6 (ligand) SGITPKSVTKRVKETVMPSCDYSTSTEELTSLRIYWQKDSKMVLAILPGKVQVWPEYKNRTITDMNDNPRIVILALRLSDSGTYTCVVQKNENGSFRREHLTSVTLSIRADFPVPSITDIGHPAPNVKRIRCSASGGFPEPRLAWMEDGEELNAVNTTVDQDLDTELYSVSSELDFNVTNNHSIVCLIKYGELSVSQIFPWSKPKQEPPIDQLPFWVIIPVSGALVLTAVVLYCLACRHVARWKRTRRNEETVGTERLSPIYLGSAQSSG | 1 |
| Round 2 CD28BP-11 (ligand) SGITPKSVTKRVKETVMLSCDYNASTEELTSLRIYWQKDSKMVLAILPGKVQVWPEYKNRTITDMNDNPRIVILALRLSDKGTYTCVVQKNENGSFRREHLTSVTLSIRADFPVPSITDIGHPAPNVKRIRCSASGGFPEPRLAWMEDGEELNAVNTTVDQDLDTELYSVSSELDFNVTNNHSIVCLIKYGELSVSQIFPWSKPKQEPPIDQLPFWVIIPVSGALVLTAVVLYCLACRHVARWKRTRRNEETVGTERLSPIYLGSAQSSG | 2 |
| Round 1 CD28BP-126 (ligand, also called R1clone 126; Clone 126) ITPKSVTKRVKETVMLSCDYSTSTEELTSLRIYWQKDSKMVLAILPGKVQVWPEYKNRTITDMNDNPRIVILALRLSDSGTYTCVIQKPDLKGAYKLEHLTSVRLMIRADFPVPTINDLGNPSPNIRRLICSTSGGFPRPHLYWLENGEELNATNTTVSQDPGTELYMISSELDFNVTNNHSIVCLIKYGELSVSQIFPWSKPKQEPPIDQLPFWVIIPVSGALVLTAVVLYCLACRHVARWKRTRRNEETVGTERLSPIYLGSAQSSG | 1 |
| Round 2 CD28A4-5* (ligand) ITPKSVTKRVKETVMLSCDYNTSTEELTSLRIYWQKDSKMVLAILPGKVQVWPEYKNRTITDMNDNPRIVILALRLSDSGTYTCVIQKPVLKGAYKLEHLTSVRLMIRADFPVPTINDLGNPSPNIRRLICSTSGGFPRPHLYWLENGEELNATNTTLSQDPETKLYMISSELDFNVTNNHSIVCLIKYGELSVSQIFPWSKPKQEPPIDQLPFWVIIPVSGALVLTAVVLYCLACRHVARWKRTRRNEETVGTERLSPIYLGSAQSSG | 1 |
| Round 2 CD28BP-2 (ligand) ITPKSVTKRVKETVMLSCDYSTSTEELTSLRIYWQKDSKMVLAILPGKVQVWPEYKNRTITDMNDNPRIVILALRLSDSGTYTCVIQKPVLKGAYKLEHLASVRLMIRADFPVPTINDLGNPSPNIRRLICSTSGGFPRPHLYWLENGEELNATNTTLSQDPETKLYMISSELDFNVTNNHSIVCLIKYGELSVSQIFPWSKPKQEPPIDQLPFWVIIPVSGALVLTAVVLYRPACRHVARWKRTRRNEETVGTERLSPIYLGSAQSSG | 2 |
| Round 2 CD28B2-8 (ligand) ITPKSVTKRVKETVMLSCDYNTSTEELTSLRIYWQKDSKMVLAILPGKVQVWPEYKNRTITDMNDNPRIVILALRLSDKGTYTCVIQKPVLKGAYKLEHLASVRLMIRADFPVPTINDLGNPSPNIRRLICSTSGGFPRPHLYWLENGEELNATNTTVSQDPGTELYMISSELDFNVTNNHSIVCLIKYGELSVSQIFPWSKPKQEPPIDQLPFWVIIPVSGALVLTAVVLYCLACRHVARWKRTRRNEETVGTERLSPIYLGSAQSSG | 1 |
| Round 2 CD28A6-9 (ligand) ITPKSVTKRVKETVMLSCDYNTSTEELTSLRIYWQKDSKMVLAILPGKVQVWPEYKNRTITDMNDNPRIVILALRLSDSGTYTCVIQKPVLKGAYKLEHLASVRLMIRADFPVPTINDLGNPSPNIRRLICSTSGGFPRPHLYWLENGEELNATNTTVSQDPGTELYMISSELDFNVTNNHSIVCLIKYGELSVSQIFPWSKPKQEPPIDQLPFLVIIPVSGALVLTAVVLYCLACRHVARWKRTRRNEETVGTERLSPIYLGSAQSSG | 1 |
| Round 2 CD28A8-4 (ligand) ITPKSVTKRVKETVMLSCDYNTSTEELTSLRIYWQKDSKMVLAILPGKVQVWPEYKNRTITDMNDNPRIVILALRLSDSGTYTCVIQKPVLKGAYKLEHLTSVRLMIRADFPVPTINDLGNPSPNIRRLICSTSGGFPRPHLYWLENGEELNATNTTVSQDPGTELYMISSELDFNVTNNHSIVCLIKYGELSVSQIFPWSKPKQEPPIDQLPFWVIIPVSGALVLTAVVLYCLACRHVARWKRTRRNEETVGTERLSPIYLGSAQSSG | 1 |
| Round 2 CD28A6-1 (ligand) ITPKSVTKRVKETVMLSCDYNTSTEELTSLRIYWQKDSKMVLAILPGKVQVWPEYKNRTITDMNDNPRIVILALRLSDSGTYTCVIQKPVLKGAYKLEHLASVRLMIRADFPVPTINDLGNPSPNIRRLICSTSGGFPRPHLYWLENGEELNATNTTVSQDPETKLYMISSELDFNVTNNHSIVCLIKYGELSVSQIFPWSKPKQEPPIDQLPFRVIIPVSGALVLTAIVLYCLACRHVARWKRTRRNEETVGTERLSPIYLGSAQSSG | 1 |
| Round 2 CD28BP-4 (ligand) ITPKSVTKRVKETVMLSCDYNTSTEELTSLRIYWQKDSKMVLAILPGKVQVWPEYKNRTITDMNDNPRIVILALRLSDSGTYTCVIQKPVLKGAYKLEHLASVRLMIRADFPVPTINDLGNPSPNIRRLICSTSGGFPRPHLCWLENGEELNATNTTVSQDPGTELYMISSELDFNVTNNHSIVCLIKYGELSVSQIFPWSKPKQEPPIDQLPFWVIIPVSGALVLTAVVLYCLACRHVARWKRTRRNEETVGTERLSPIYLGSAQSSG | 2 |
| Round 2 CD28BP-5 (ligand) ITPKSVTKRVKETVMLSCDYSTSTEELTSLRIYWQKDSKMVLAILPGKVQVWPEYKNRTITDMNDNPRIVILALRLSDKGTYTCVVQKPVLKGAYKLEHLTSVRLMIRADFPVPTINDLGNPSPNIRRLICSTSGGFPRPHLYWLENGEELNATNTTVSQDPGTELYMISSELDFNVTNNHSIVCLIKYGELSVSQIFPWSKPKQEPPIDQLPFWVIIPVSGALVLTAVVLYCLACRHVARWKRTRRNEETVGTERLSPIYLGSAQSSG | 2 |

More lines, now with the values ahead:

| Binding Score | Binder |
| --- | --- |
| 0 | Round 2 CD28F3-5 (ligand, also called GD28F3-5) SGITPKSVTKRVKETVMLSCDYNTSTEELTSLRIYWQKDSKMVLAILPGKVQVWPEYKNRTITDMNDNPRIVILALRLSDSGTYTCVVQKNENGSFRREHLTSVTLSIRADFPVPSITDIGHPAPNVKRIRCSASGGFPEPRLAWMEDGEELNAVNTTVDQDLDTELYSVSSELDFNVTNNHSIVCLIKYGELSVSQIFPWSKPKQEPPIDQLPFWVIIPVSGALVLTAVVLYCLACRHVARWKRTRRNEETVGTERLSPIYLGSAQSSG |
| 1 | Round 2 CD28G1-5 (ligand) SGITPKSVTKRVKETVMLSCDYSTSTEELTSLRIYWQKDSKMVLAILPGKVQVWPEYKNRTFPDIINNLSLMILALRLSDKGTYTCVVQKNENGSFRREHLTSVTLSIRADFPVSSITDIGHPAPNVKRIRCSASGGFPEPRLAWMEDGEELNAVNTTVDQDLDTELYSVSSELDFNVTNNHSIVCLIKYGELSVSQIFPWSKPKQEPPIDQLPFWVIIPVSGALVLTAVVLYCLACRHVARWKRTRRNEETVGTERLSPIYLGSAQSSG |
| 2 | Round 2 CD28BP-17 (ligand) SGITPKSVTKRVKETVMLSCDYSTSTEELTSLRIYWQKDSKMVLAILPGKVQVWPEYKNRTFPDIINNLSLMILALRLSDKGTYTCVVQKNENGSFRREHLTSVTLSIRADFPVPSITDIGHPAPNVKRIRCSASGDFPEPRLAWMEDGEELNAVNTTVDQDLDTELYSVSSELDFNVTNNHSIVCLIKYGELSVSQIFPWSKPKQEPPIDQLPFWVIIPVSGALVLTVVVLYCLACRHVARWKRTRRNEETVGTERLSPIYLGSAQSSG |
| 2 | Round 2 CD28BP-16 (ligand) ITPKSVTKRVKETVMLSCDYNTSTEELTSLRIYWQKDSKMVLAILPGKVQVWPEYKNRTITDMNDNPRIVILALRLSDSGTYTCVIQKPVLKGAYKLEHLTSVRLMIRADFPVPTINDLGNPSPNIRRLICSTSGGFPRPHLYWLENGEELNATNTTVSQDPGTELYMISSELDFNVTNNHSIVCLIKYGELSVSQIFPWSKPKQEPPIDQLPFWVIIPVSGALVLAAVVLYCLACRHVARWKRTRRNEETVGTERLSPIYLGSAQSSG |
| 2 | Round 2 CD28BP-13 (ligand) ITPKSVTKRVKETVMLSCDYSTSTEELTSLRIYWQKDSKMVLAILPGKVQVWPEYKNRTITDMNDNPRIVILALRLSDSGTYTCVIQKPVLKGAYKLEHLASVRLMIRADFPVPTINDLGNPSPNIRRLICSTSGGFPEPRLAWMEDGEELNAVNTTVDQDLDTELYSVSSELDFNVTNNHSIVCLIKYGELSVSQIFPWSKPKQEPPIDQLPFWVIIPVSGALVLTAVVLYCLACRHVARWKRTRRNEETVGTERLSPIYLGSAQSSG |
| 2 | Round 2 CD28C8-6 (ligand) ITPKSVTKRVKETVMLSCDYNTSTEELTSLRIYWQKDSKMVLAILPGKVQVWPEYKNRTITDMNDNPRIVILALRLSDSGTYTCVIQKPVLKGAYKLEHLASVRLMIRADFPVPTINDLGNPSPNIRRLICSTSGGFPRPHLYWLENGEELNATNTTVSQDPGTELYMISSELGFNVTNNHSIVCLIKYGELSVSQIFPWSKPKQEPPIDQLPFWVIIPVSGALVLTAVVLYCLACRHVARWKRTRRNEETVGTERLSPIYLGSAQSSG |
| 1 | Round 2 CD28C6-1 (ligand) ITPKSVTKRVKETVMLSCDYSTSTEELTSLRIYWQKDSKMVLAILPGKVQVWPEYKNRTITDMNDNPRIVILALRLSDSGTYTCVIQKPVLKGAYKLEHLASVRLMIRADFPVPTINDLGNPSPNIRRLICSTSGGFPRPHLYWLENGEELNATNTTVSQDPGTELYMISSELDFNVTNNHSIVCLIKYGELSVSQIFPWSKPKQEPPIDQLPFWVIIPVSGALVLTAVVLYCLACRHGARWKRTRRNEETVGTERLSPIYLGSAQSSG |
